Data taken from patent US20160022834A1.

Target: rat anti-DNP (IgG^DNP, clone: LO-DNP-2) photocrosslinked with IBA-biotin
Experiment: ELISA, anti-Fc HRP secondary on UV exposed IBA-biotin photocrosslinked IgG^DNP (antigen-bound or directly adsorbed), relative to no UV

Q: For “HRP-conjugated IgG Fcγ specific goat anti-rat (antibody)”, which Fc recognition (percent activity at 2.0 J/cm^2 UV) is on record?
A: Its Fc recognition (percent activity at 2.0 J/cm^2 UV) is 75%.
